From EP4620474A1 come the findings set out here.

The assay deals with human receptor for C5a (human) (UniProt P21730). In words: cell-based or functional assay.
UniProt P21730, sequence (P21730 whole entry): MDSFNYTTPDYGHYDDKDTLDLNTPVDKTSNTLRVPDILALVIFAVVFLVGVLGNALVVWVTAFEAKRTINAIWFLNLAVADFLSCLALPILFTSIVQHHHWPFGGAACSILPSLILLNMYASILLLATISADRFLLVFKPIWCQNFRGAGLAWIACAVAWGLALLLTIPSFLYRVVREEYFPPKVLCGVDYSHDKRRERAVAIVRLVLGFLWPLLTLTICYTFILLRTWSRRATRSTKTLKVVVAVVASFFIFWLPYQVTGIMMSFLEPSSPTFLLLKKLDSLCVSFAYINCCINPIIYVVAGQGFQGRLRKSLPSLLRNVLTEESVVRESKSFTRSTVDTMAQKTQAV

Substance “mouse C5a (from UniProt P06684 679-755) (ligand)” showed a half effective concentrations (EC50), chemotaxis (migration) of BA/F3/huC5aR cells of 0.3 nM.

As for “recombinant human C5a (from UniProt P01031 678-751) (ligand)”, the half effective concentrations (EC50), chemotaxis (migration) of BA/F3/huC5aR cells amounted to 0.1 nM.
